Reference: the supplement of paper PMC12042874
± gives the uncertainty stated by the source.

Experiment: amyloid nucleation score (Sup35N fusion, yeast selection) (log enrichment); library NNK1; higher = more nucleation; inactive = no reads after selection
In short: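 DiMSum was used to calculate nucleation scores as log enrichment of output over input reads, centred on the mode score of non-aggregating sequences. Sequences with fewer than 100 input reads were not scored. Input and output came from Illumina sequencing of plasmid inserts in psi-negative yeast expressing peptides of 20 random codons fused to Sup35N, induced 24 hours with 100 μM copper sulfate and then grown 7 days at 30°C on medium lacking adenine and uracil.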

Point of comparison: WRVNVEVKYFAEKTVQECWV, amyloid nucleation score 0.817 ± 0.23. Against it:
- VSYRTSMSVVLRCGFYCSAY — higher, 3.22 ± 0.14
- VSYSGQSLICYWVLEASFVV — lower, -0.05 ± 0.31
- VTCWPDICRSFYMIVLHCFR — within error, 0.141 ± 0.7
- VTKFLWYIPGPKIGRFYLSN — within error, 0.43 ± 0.38
- VTLAQKLLDF — within error, -0.421 ± 1.1
- VTMVRYCALIQSYGGDGELV — within error, 0.26 ± 0.45
- VTRLLTLPWHCRRIYLVNLY — within error, -0.09 ± 0.97
- VVARYYIQLFDRRDRN — higher, 6.678 ± 0.065
- VVDFGSGCI — within error, 0.423 ± 0.46
- VVFRGIVCCCQ — within error, 0.3 ± 0.58
- VVGSVLRGSYTCLG — lower, -0.972 ± 0.82
- VVIESYC — within error, 0.593 ± 0.36
- VVISIYGMYRSFTPQLWFKA — lower, -0.603 ± 0.68
- VVLEHVDYHS — within error, 0.822 ± 0.52
- VVSRIDPCTWHCAMIKGHRY — within error, -0.332 ± 1.1
- VVSSAEQVHLGVVNGRRFLL — within error, -0.003 ± 0.74
- VVTEKGLPWARQW — lower, -0.205 ± 0.33
- VVVCSNLMYLNCNWAATNNL — higher, 7.163 ± 0.047
- VVVGDSPNGNEEDDWSSC — within error, -2.03 ± 2.7
- VVWEQSIDVILGYMGLGPD — within error, 0.381 ± 0.49
- VVWWGEQHGLYSYFGHGIGI — within error, 0.968 ± 0.63
- VWACSPGDVAFMP — within error, 0.762 ± 0.97
- VWGYVMRS — within error, 0.299 ± 0.95
- VWLCLRIVVSGNNRACFICV — higher, 1.46 ± 0.19
- VWLEYECKVLVLHYCFCRVR — within error, 0.72 ± 0.61
- VWTGCVHCRRWDSGSLLNSW — within error, -0.036 ± 0.91
- VWYTRGRRHRGTTYMSNRLW — lower, -0.28 ± 0.31
- VYFRCTWAISMFFYMSNAGW — higher, 1.35 ± 0.21
- VYGVPWYGLSYLFCTSVDID — higher, 6.252 ± 0.059
- VYPFD — lower, -1.32 ± 1.4
- VYRCCLKAVCFIDVVTGLWG — lower, -0.173 ± 0.71
- VYSFDMM — within error, 0.256 ± 0.52
- VYSMVFLMPCNRHDSFGRYS — higher, 6.578 ± 0.056
- VYSMWTERQFLGMILGGEAG — within error, -0.091 ± 0.85
- VYSRPL — within error, 0.098 ± 0.57
- VYSSMIVLKDALIPSSKTDA — within error, 0.999 ± 0.51
- VYTSRDGNDLEACGGYSAIV — within error, 0.705 ± 0.71
- WAHGLLFSYDSLHWYYICKV — within error, 0.304 ± 0.44
- WAMDKGWKVNHCNEAPMIHC — lower, -0.053 ± 0.37
- WASMIHVEFYSNYFL — within error, -0.017 ± 0.72
- WATLALSR — within error, 0.5 ± 0.4
- WCARNISRCPSNISGNLGMK — lower, -0.461 ± 0.69
- WCSDKSVGRAKDDDSGTRRC — lower, -0.018 ± 0.46
- WDFDYSMCVLYMVTAIRLWR — lower, -0.26 ± 0.54
- WDKADVFLDDVSASRSSLKM — higher, 3.31 ± 0.088
- WFASYCISFN — higher, 2.27 ± 0.21
- WFDELGRDFLV — within error, -0.193 ± 1.6
- WFGYNIGPK — higher, 2 ± 0.28
- WFYKLSSLFYNPLCL — lower, -1.13 ± 0.41
- WFYPWVLVWTLSCCVSRHKG — higher, 4.35 ± 0.14
- WGCDLEAALY — within error, 0.016 ± 1.7
- WGFRENETMV — lower, -0.742 ± 0.46
- WGIVVNQYVVRSVRLKLQDR — higher, 2.8 ± 0.13
- WGMWSGLLFGEFWCS — lower, -0.424 ± 0.71
- WHMVKSVSTNIV — lower, -0.386 ± 0.58
- WIILVHGGGKRLSVNIHLLC — lower, -0.713 ± 0.32
- WKQMVLGVWCESLELL — lower, -0.548 ± 0.56
- WLFLTYNVMGLKVGKFAGHT — lower, -0.437 ± 0.42
- WLINTPTHWVFVDIVWYWSK — within error, 0.051 ± 0.84
- WLMVLATGAYAMHWVVTSSL — higher, 2.98 ± 0.069
- WLNFWILMSVMFVNMSSLFP — lower, -1.01 ± 0.52
- WLSHGIEVVVHKTSSVSYWR — lower, -0.796 ± 1.1
- WLSPQG — within error, 0.453 ± 0.62
- WLVCNEGSIMDLASGLGLIR — within error, 0.561 ± 0.66
- WLVQAQALQGWKCFLHKISF — lower, -0.186 ± 0.48
- WLVVHSQLFSSCNCLKNTVP — within error, 0.968 ± 0.35
- WMALDYGYSTSHGNCYMEIS — within error, 1.23 ± 0.84
- WMFTGVRLVSK — within error, 0.3 ± 0.43
- WNCLCSGLTC — higher, 6.806 ± 0.055
- WNGTFNVPWSFDFRCSWVGK — within error, 0.719 ± 0.79
- WNPIAIYEGDGMQDAFCADL — lower, -0.033 ± 0.38
- WPASLSSCIS — within error, -0.047 ± 0.66
- WPTIPAVQCRRVVCSRDTWA — lower, -0.185 ± 0.31
- WQQWGRSPRTR — within error, 0.368 ± 0.46
- WRMCSHCVLPHSMFSDSNTV — lower, -1.03 ± 1.3
- WRMRYKC — within error, -0.338 ± 1.2
- WSCKVMRVYRP — within error, 0.295 ± 0.4
- WSKDNTIVEISYGTSGLVQL — within error, 0.39 ± 0.26
- WSLWARWSFRHRCQRMHLLL — lower, 0.174 ± 0.4
- WSMMCKWMNVERFIYMLKSC — within error, 0.394 ± 1.1
- WSTCLCGYCCVI — higher, 1.31 ± 0.2
- WSTNNCCYA — within error, -1.38 ± 2.1
- WTNSRHC — within error, 0.636 ± 0.38
- WTTSVSL — lower, -0.346 ± 0.84
- WVCFIFIIFETVS — lower, -0.207 ± 0.47
- WVFVNYWSGSKNQ — higher, 2.96 ± 0.14
- WVIVRYRNFCVCGRPSKDIG — lower, 0.263 ± 0.32
- WVKCRDWYSILF — higher, 5.19 ± 0.089
- WVLNG — lower, -0.514 ± 0.34
- WVRSNKGQAGSG — within error, 0.886 ± 1
- WVRYFPCRIII — lower, -1.27 ± 0.79
- WVSPLVYDWYLT — within error, -0.929 ± 2.7
- WVVCVIDEGSSTFFINI — within error, -0.556 ± 1.4
- WVVISMSVRHVLACNLLPIR — within error, -0.013 ± 0.76
- WVWSLRLLGFNNLMDKATGF — lower, -0.312 ± 0.24
- WWALIHRPMVRVLGVQRVD — lower, -0.297 ± 0.88
- WWATWRLLCIDNTACWADRW — lower, -0.177 ± 0.53
- WWHSL — higher, 2.01 ± 0.62
- WYKMSRRGQ — within error, 0.857 ± 1
- WYRVCV — lower, -0.603 ± 0.65
- WYWELGLALKRWRYAANFGS — within error, -0.19 ± 0.96
- WYYDCWIYL — within error, 1.25 ± 0.46
- WYYYTVSSEGSNSAGTKLRG — within error, 0.376 ± 0.38
- YAFDMRMENTQVRYHVPLII — within error, 0.292 ± 0.73
- YAKHFPVLRTCLLNSVWGQG — within error, 1.33 ± 0.57
- YCDNDSYH — within error, 1.42 ± 0.44
- YCDSWSVSFLICRSPFQNYM — lower, -1.12 ± 0.56
- YCGMKVDVVIVGRHVFRISF — within error, 0.512 ± 0.41
- YCHCRFFDNLGCECLLR — within error, -0.368 ± 1.9
- YCQVYGSVWNFKRYYLATWS — lower, -0.128 ± 0.55
- YDPPNCSAKSNQAGLKCTGA — higher, 2.22 ± 0.19
- YDTTTHMRISMVGSSQPVCL — lower, -0.327 ± 0.3
- YDWAVSAS — lower, -0.364 ± 0.61
- YEGYGPCWRKLYS — lower, 0.15 ± 0.36
- YELRFMRVEQGSQYREVS — lower, -0.159 ± 0.37
- YEYQEKFSFYIEVLGKDSLS — lower, -0.864 ± 0.41
- YFCAMGNHVLVS — lower, -0.389 ± 0.49
- YFCFFSRMFTVEF — higher, 2.12 ± 0.64
- YFDVL — lower, -0.537 ± 0.48
- YFFCVFI — higher, 8.469 ± 0.072
- YFGKYLIWWFMSKLAV — lower, -0.388 ± 0.29
- YFHIESGLYYTWFMLYGPGR — within error, 0.154 ± 0.61
- YFIDLISWL — within error, 0.198 ± 0.56
- YFLGQMLISEGIMSVAFCVR — higher, 5.13 ± 0.073
- YFRRCFDRCVMSRLRPI — lower, -0.793 ± 0.61
- YFTERL — lower, 0.122 ± 0.44
- YFYDLSRCLFIHCTVGSQIL — higher, 7.769 ± 0.044
- YGFKLGMFTGSIAMYAGHLI — lower, -0.198 ± 0.31
- YGGISMLLCRSVWRFNRQYI — within error, 0.547 ± 0.76
- YGHCFDFGVRTVLFNGFSLI — within error, 1.29 ± 0.84
- YGLDPHSAAEALLVRPNTGR — lower, -0.18 ± 0.41
- YGRKISYLKFLKCVDVVLGW — lower, 0.303 ± 0.28
- YGSMVMDVEAR — lower, -0.001 ± 0.45
- YGSSLAAWVRLCVLTGDSRQ — higher, 1.46 ± 0.38
- YGVNLPALLFKYAISGSLVG — within error, 1.03 ± 0.53
- YGVRFGVFLSTCLNFSGEYR — lower, -0.178 ± 0.42
- YGYGY — lower, -0.217 ± 0.23
- YHANICSKFSSLYSNL — within error, 1.01 ± 0.93
- YHGVTLVSLLRYKLW — within error, 1.28 ± 0.27
- YHTSRYRCTMYMGNSHGAMP — within error, 0.228 ± 0.97
- YHVYSVRSNVWALLKIRLV — within error, 1.14 ± 0.58
- YIDVGICYGGDERVLFLV — within error, 1.2 ± 0.61
- YIFAAWGGNKTHLCGQIKY — within error, 0.862 ± 0.18
- YIKWSMIRFT — lower, -0.66 ± 0.46
- YIVRQECSRIQYLTDM — within error, 1.22 ± 0.73
- YIVTTLQYDRSLASKVDEGT — lower, -0.489 ± 0.56
- YIWRNKKSAIRCDSKTVRRN — lower, -0.286 ± 0.35
- YKFKGSFVSIRQGAEVGYSA — lower, -0.361 ± 0.69
- YKGLFR — lower, 0.065 ± 0.45
- YKGNKCCVKMMACWGTGCLP — higher, 1.98 ± 0.37
- YKMCFSKVYESTEPMMCTGV — lower, -0.904 ± 0.8
- YKNVCSDSVTLRKPGRVVLL — lower, -0.278 ± 0.67
- YLALVSANNASKKAVVKSTE — within error, -0.054 ± 0.72
- YLCDSSLGVVYSFLHCRMVD — lower, -0.369 ± 0.67
- YLFPDVTRICCMGWSFTLLS — higher, 5.27 ± 0.053
- YLFQAGQDTRLLIC — within error, 0.236 ± 0.63
- YLKINTTYGCDI — higher, 1.93 ± 0.34

With VTVFEILWGMTT the amyloid nucleation score was “inactive”.
With VVRTH the amyloid nucleation score was “inactive”.
In the case of VVTDF, the amyloid nucleation score is reported as “inactive”.
For WCSLRSDW, the amyloid nucleation score was “inactive”.
With WGLNWSNSNN the amyloid nucleation score was “inactive”.
With WHLWIVTTVTHMGSNNFLG the amyloid nucleation score was “inactive”.
With WICVGYIVTTCSPELGEYRQ the amyloid nucleation score was “inactive”.
For WIWVYQTNKIKEMFMRRVWL, the amyloid nucleation score was “inactive”.
In the case of WNVDVGSLC, the amyloid nucleation score is reported as “inactive”.
In the case of WPWHEHEQKWDKLCMLSWKR, the amyloid nucleation score is reported as “inactive”.
In the case of WQSFGVSGRLPYRQWSD, the amyloid nucleation score is reported as “inactive”.
For WVRNSLCRQIRRSANHQSGA, the amyloid nucleation score was “inactive”.
For YASGLNSHDELVFYFYNRER, the amyloid nucleation score was “inactive”.
With YCVIHSIRLGRIHLDCFWDF the amyloid nucleation score was “inactive”.
With YFAHGSWRLSCFLVYWLMRP the amyloid nucleation score was “inactive”.
With YLCFKYVLGCNRWSVAVVNF the amyloid nucleation score was “inactive”.
